Assay results as given in patent US9926369B2, “Methods for treating hepatocellular cancer by administering an anti-Ang-2 antibody” (Regeneron Pharmaceuticals, Inc., priority 2009, dated 2018).
pKd: −log10 of the molar value.

Columns and labels:
Dimeric Human Ang-2FD = molecular target: T1, Dimeric Human Ang-2FD (Homo sapiens, UniProt O15123); test: Surface plasmon resonance binding to dimeric human Ang-2FD conjugated to human IgG1; conditions: SPR, room temperature
T1 sequence (O15123 282-496): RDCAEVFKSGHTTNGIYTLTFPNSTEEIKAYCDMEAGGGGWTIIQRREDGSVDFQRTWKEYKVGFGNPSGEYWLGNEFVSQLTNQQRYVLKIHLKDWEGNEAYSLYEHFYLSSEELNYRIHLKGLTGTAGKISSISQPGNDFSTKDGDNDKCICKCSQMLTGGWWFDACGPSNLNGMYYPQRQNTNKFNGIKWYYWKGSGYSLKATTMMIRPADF
Experimental: Equilibrium dissociation constants (KD values) for the binding of selected purified Ang-2 antibodies to dimeric fibrinogen-like domain of human (SEQ ID NO: 519), mouse (Mus musculus; SEQ ID NO: 520) and monkey (Macca fascicularis; SEQ ID NO: 521) Ang-2 (Ang-2FD) conjugated to human IgG1 (SEQ ID NO:528) were determined by surface kinetics using a real-time biosensor surface plasmon resonance assay. Antibody was captured on a goat anti-mouse IgG polyclonal antibody surface, a goat anti-human κ polyclonal antibody (Southern Biotech, Birmingham, Ala.) surface or a goat anti-human IgG polyclonal antibody (Jackson Immuno Research Lab, West Grove, Pa.) surface created through direct amine coupling to a BIACORE™ CM5 sensor chip to form a captured antibody surface. Varying concentrations (ranging from 50 nM to 6.25 nM) of protein were injected at 100 μl/min over captured antibody surface for 90 seconds. Antigen-antibody binding and dissociation were monitored in real time at room temperature. Kinetic analysis was performed to calculate KD and half-life of antigen/antibody complex dissociation.
The above experiment was repeated using selected purified anti-Ang-2 antibodies cloned onto human IgG1.

[1] = tested on: COLO 205 tumor vessel perfusion; test: Tumor perfusion by contrast-enhanced micro-ultrasound, COLO 205 tumors; type: in vivo, mice; conditions: treated for 24 hrs
Experimental: To determine whether the combination of H1H685P+VEGF Trap has a greater effect on tumor vessel function than the single agents, a micro-ultrasound (VisualSonics' Vevo 770 imaging system) was used to assess changes in tumor perfusion. COLO 205 tumors were grown to ˜125 mm^3 and mice were then treated for 24 hrs with H1H685P, VEGF Trap or the combination of both agents. Following treatment, tumor vessel perfusion was determined based on contrast-enhanced micro-ultrasound 2D image acquisition and analysis of a “wash-in” curve, which represents the amount of contrast agent entering the tumor. Average (mean+/−standard deviation) tumor perfusion was calculated for each group. Percent decrease was calculated from comparison to the Fc control group.

[2] = tested on: advanced solid tumor malignancies; test: Ascending, multiple-dose clinical trial of intravenously administered mAb1 in patients with advanced cancer; type: in vivo
Experimental: This study was an open-label, ascending, multiple-dose study of mAb1 administered as an intravenous (IV) infusion (30 minutes) at doses of 1, 3, 6, 12 or 20 mg/kg once every 2 weeks. The study was conducted in patients with advanced solid tumor malignancies who have failed conventional therapy. The purpose of the study was to explore the safety, recommended dose (RD), pharmacokinetics (PK), pharmacodynamics (PD) and anti-tumor activity of mAb1 (also known as “H1H685P”).
Patients were screened to determine eligibility within 28 days prior to the first dose administration. Three patients were assigned to each of the five sequential cohorts (1, 3, 6, 12 or 20 mg/kg). Patients received mAb1 as a 30 minute IV infusion on Days 1 and 15 of each 4-week cycle (28 days). The dose of mAb1 was escalated until the recommended dose was determined, based on safety, tolerability, PK, PD testing and/or maximum tolerated dose (MTD). The MTD is defined as the highest dose at which less than 33% of patients experience dose-limiting toxicity (DLT) during the first cycle of therapy.
Six dose levels were planned for studying dose escalation. Starting at dose 1, a minimum of 3 patients was entered at each dose level. […] If no further cycle 1 DLT was observed, dose escalation proceeded to the next dose level. If two or more patients experienced a cycle 1 DLT, dose escalation was stopped and the previous lower dose level was expanded to 6 patients. Once the RD was determined, up to 10 additional patients were enrolled to evaluate safety and other biological/clinical effects. A separate cohort was planned for patients with hepatocellular carcinoma (HCC) where up to 10 patients were enrolled based on the eligibility criteria (listed below).
A DLT is defined by any of the following treatment-related events occurring during the first cycle (28 days) of study treatment: (1) Hematologic toxicity as evidenced by (a) Grade 3 or 4 neutropenia complicated by fever 38.5° C. or infection; (b) Grade 4 neutropenia of at least 7 days duration; (c) Grade 3 thrombocytopenia complicated by hemorrhage; or (d) Grade 4 thrombocytopenia; and/or (2) Non-hematologic toxicity as evidenced by (a) any Grade 4 non-hematologic toxicity; or (b) Grade 3 non-hematologic toxicities except fatigue, anorexia, nausea, vomiting or diarrhea that can be controlled by medication. Grade 3 laboratory changes that reflected tumor burden were not considered as DLT.
Safety was assessed throughout the study by monitoring Adverse Events and Serious Adverse Events.
For tumor assessment, a CT or MRI was performed at the screening visit (within 28 days prior to infusion) and during every even-numbered cycle (eg cycles 2, 4, 6, 8) between days 15 and 28 and when disease progression was suspected. Tumor assessment was performed according to Response Evaluation Criteria in Solid Tumors version 1.1 (RECIST version 1.1). RECIST criteria are developed to facilitate objective assessment of change in tumor burden such as tumor shrinkage and time to development of disease progression. RECIST guidelines are posted on the worldwide web at http://ctep(dot)cancer(dot)gov(slash)protocoldevelopment(slash)docs(slash)recist_guideline(dot)pdf. Tumor marker assessments were also collected, when available.
Blood samples were collected for RNA, serum cytokine testing, molecular profiling, anti-drug antibody (ADA) and serum mAb1 levels at screening and post-infusion on days 1, 2, 3, 8, 15 and 22 of cycle 1, and on day 1 of subsequent cycles. Tumor biopsies were obtained for immunohistochemistry studies for Ang-2. Results were scored as positive for Ang-2 in association with expression of endothelial cell CD31.

Substance: H1H685P: human anti-Ang-2 antibody, HCVR/LCVR SEQ ID NOs 18/20; also referred to as mAb1 [Antibody H1H685P]
- pKd (Dimeric Human Ang-2FD): 10.15
- Relative Tumor Perfusion ([1]; mean ± SD): 6.32 ± 2.81
- % Decrease in Tumor Perfusion ([1]; vs Fc control): 22%
- Positive ADA detected ([2]; 3 mg/kg): 1 patient
- Confirmed sustained patient response (PR), duration ([2]; 1 patient with adrenocortical cancer treated at 1 mg/kg): 16 wks
- Stable disease (SD), patients evaluable for efficacy ([2]; 17 of 32 patients): 53%
- Total circulating serum Ang2 levels following treatment ([2]; all cohorts): saturated
- Maximum tolerated dose (MTD) ([2]; human, in vivo, iv): not reached
- Stable disease (SD), duration ([2]; one patient with thyroid cancer): 46 weeks
- Treatment-related adverse events (G½): abdominal distension ([2]; patients): 11%
- Treatment-related adverse events (G½): decreased appetite ([2]; patients): 11%
- Treatment-related adverse events (G½): diarrhea ([2]; patients): 14%
- Treatment-related adverse events (G½): fatigue ([2]; patients): 19%
- Treatment-related adverse events (G½): peripheral edema ([2]; patients): 17%
- ≥Grade 3 TRAEs ([2]; patients): no ≥Grade 3 TRAEs
- Stable disease (SD), duration range ([2]; patients evaluable for efficacy): 3.3-46.8 weeks
- Tolerability ([2]; patients with advanced cancer): generally well tolerated
- Dose-limiting toxicities (DLTs) ([2]; patients, 1, 3, 6, 12 and 20 mg/kg IV every 2 weeks): No DLTs
- Pharmacokinetics (PK) across all dose levels ([2]; patients, IV): linear and dose-proportional
